Data set [1] relates to HeLa Kyoto. The data set can be described thus: thermal stability score vs G1/S (z-score of summed log2 fold changes over temperatures); higher = more thermally stable than in G1/S.
Data set [2] deals with HeLa Kyoto. The data set is described as follows: solubility in G1/S (NP-40 vs SDS abundance) (log2 ratio); higher = more soluble. The conditions noted are these: cell cycle stage: G1/S.
The subject of data set [3] is HeLa Kyoto. The data set is described as follows: melting temperature (median over replicates), in situ; higher = more thermally stable.
Data set [4] deals with HeLa Kyoto. The data set is described as follows: solubility change mitosis vs G1/S (difference of NP-40 vs SDS log2 ratios) (log2 ratio difference); higher = more soluble in mitosis.
Where [5] appears, read: cell cycle stage: early G1 (4.5 h after nocodazole release).
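Wherever melting temperature (median over replicates), in situ is given: HeLa Kyoto cells synchronized by double thymidine or nocodazole block, proteins quantified by TMT10plex mass spectrometry, three independent biological replicates.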
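Wherever solubility change mitosis vs G1/S (difference of NP-40 vs SDS log2 ratios) is given: synchronized HeLa Kyoto cells (double thymidine block for G1/S, nocodazole release for mitosis), protein amounts in NP-40 versus SDS lysates quantified by mass spectrometry, three biological replicates.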
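Wherever solubility in G1/S (NP-40 vs SDS abundance) is given: HeLa Kyoto cells arrested at G1/S by double thymidine block, proteins quantified by TMT10plex mass spectrometry in mild NP-40 versus SDS extracts, three biological replicates.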
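Wherever thermal stability score vs G1/S (z-score of summed log2 fold changes over temperatures) is given: synchronized HeLa Kyoto cells, proteins quantified by TMT10plex mass spectrometry, three biological replicates, mitosis taken 0.5 h after nocodazole release, G1/S directly after double thymidine block.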

Consider “MASESDTEEFYDAPEDVHLGGGYPVGSPGKVGLSTFKETENTAYKVGNESPVQELKQDVSKKIIESIIEESQKVLQLEDDSLDSKGKELSDQATASPIVARTDLSNIPGLLAIDQVLPEESQKAESQNTFEETELELKKCFPSDETCEKPVDETTKLTQTSSTEQLNVLETETEVLNKEAVEVKGGGDVLEPVSSDSLSTKDFAAVEEVAPAKPPRHLTPEPDIVASTKKPVPARPPPPTNFPPPRPPPPSRPAPPPRKRKSELEFETLKTPDIDVPKENITSDSLLTASMASESTVKDSQPSLDLASATSGDKIVTAQENGKAPDGQTVAGEVMGPQRPRSNSGRELTDEEILASVMIKNLDTGEEIPLSLAEEKLPTGINPLTLHIMRRTKEYVSNDAAQSDDEEKLQSQPTDTDGGRLKQKTTQLKKFLGKSVKRAKHLAEEYGERAINKVKSVRDEVFHTDQDDPSSSDDEGMPYTRPVKFKAAHGFKGPYDFDQIKVVQDLSGEHMGAVWTMKFSHCGRLLASAGQDNVVRIWALKNAFDYFNNMRMKYNTEGRVSPSPSQESLSSSKSDTDTGVCSGTDEDPDDKNAPFRQRPFCKYKGHTADLLDLSWSKNYFLLSSSMDKTVRLWHISRRECLCCFQHIDFVTAIAFHPRDDRYFLSGSLDGKLRLWNIPDKKVALWNEVDGQTKLITAANFCQNGKYAVIGTYDGRCIFYDTEHLKYHTQIHVRSTRGRNKVGRKITGIEPLPGENKILVTSNDSRIRLYDLRDLSLSMKYKGYVNSSSQIKASFSHDFTYLVSGSEDKYVYIWSTYHDLSKFTSVRRDRNDFWEGIKAHNAVVTSAIFAPNPSLMLSLDVQSEKSEGNEKSEDAEVLDATPSGIMKTDNTEVLLSADFTGAIKVFVNKRKNVS [WDR44]”, for which the values for the thermal stability score in the data set with HeLa Kyoto [1] (setting [5]) and with HeLa Kyoto [1] (cell cycle stage: mitosis) were -1.63 and -2.21, respectively. The “solubility in G1/S (log2)” value in the data set with HeLa Kyoto [2] is -0.102. Also, the figures for the melting temperature in the data set with HeLa Kyoto [3] (cell cycle stage: G1/S) and in the data set on HeLa Kyoto [3] (cell cycle stage: mitosis) were 55.7 °C and 55.1 °C, respectively. Further, the “solubility change mitosis (log2)” value with HeLa Kyoto [4] was -0.145.

Regarding “MAAPPARADADPSPTSPPTARDTPGRQAEKSETACEDRSNAESLDRLLPPVGTGRSPRKRTTSQCKSEPPLLRTSKRTIYTAGRPPWYNEHGTQSKEAFAIGLGGGSASGKTTVARMIIEALDVPWVVLLSMDSFYKVLTEQQQEQAAHNNFNFDHPDAFDFDLIISTLKKLKQGKSVKVPIYDFTTHSRKKDWKTLYGANVIIFEGIMAFADKTLLELLDMKIFVDTDSDIRLVRRLRRDISERGRDIEGVIKQYNKFVKPSFDQYIQPTMRLADIVVPRGSGNTVAIDLIVQHVHSQLEERELSVRAALASAHQCHPLPRTLSVLKSTPQVRGMHTIIRDKETSRDEFIFYSKRLMRLLIEHALSFLPFQDCVVQTPQGQDYAGKCYAGKQITGVSILRAGETMEPALRAVCKDVRIGTILIQTNQLTGEPELHYLRLPKDISDDHVILMDCTVSTGAAAMMAVRVLLDHDVPEDKIFLLSLLMAEMGVHSVAYAFPRVRIITTAVDKRVNDLFRIIPGIGNFGDRYFGTDAVPDGSDEEEVAYTG [UCKL1]”, the thermal stability score in the data set with HeLa Kyoto [1] (setting [5]) was -1.2; with HeLa Kyoto [1] (cell cycle stage: mitosis) it was -0.843. Moreover, the “solubility in G1/S (log2)” value with HeLa Kyoto [2] was -0.0507. Further, the melting temperature in the data set with HeLa Kyoto [3] (cell cycle stage: G1/S) and in the data set with HeLa Kyoto [3] (cell cycle stage: mitosis) was 51.6 °C in each case. Moreover, the “solubility change mitosis (log2)” value in the data set on HeLa Kyoto [4] stood at 0.0371.

Turning to “MESKALLVLTLAVWLQSLTASRGGVAAADQRRDFIDIESKFALRTPEDTAEDTCHLIPGVAESVATCHFNHSSKTFMVIHGWTVTGMYESWVPKLVAALYKREPDSNVIVVDWLSRAQEHYPVSAGYTKLVGQDVARFINWMEEEFNYPLDNVHLLGYSLGAHAAGIAGSLTNKKVNRITGLDPAGPNFEYAEAPSRLSPDDADFVDVLHTFTRGSPGRSIGIQKPVGHVDIYPNGGTFQPGCNIGEAIRVIAERGLGDVDQLVKCSHERSIHLFIDSLLNEENPSKAYRCSSKEAFEKGLCLSCRKNRCNNLGYEINKVRAKRSSKMYLKTRSQMPYKVFHYQVKIHFSGTESETHTNQAFEISLYGTVAESENIPFTLPEVSTNKTYSFLIYTEVDIGELLMLKLKWKSDSYFSWSDWWSSPGFAIQKIRVKAGETQKKVIFCSREKVSHLQKGKAPAVFVKCHDKSLNKKSG [LPL]”, the thermal stability score in the data set on HeLa Kyoto [1] (setting [5]) is -1.96; in the data set with HeLa Kyoto [1] (cell cycle stage: mitosis) it was -2.52. In the data set with HeLa Kyoto [2], the “solubility in G1/S (log2)” value was -0.0225. For the same sequence, the melting temperature turned out to be 53.9 °C in the data set with HeLa Kyoto [3] (cell cycle stage: G1/S) and 53.7 °C in the data set on HeLa Kyoto [3] (cell cycle stage: mitosis). For the same sequence, the “solubility change mitosis (log2)” value in the data set on HeLa Kyoto [4] was -0.028.

Consider “MARGSAVAWAALGPLLWGCALGLQGGMLYPQESPSRECKELDGLWSFRADFSDNRRRGFEEQWYRRPLWESGPTVDMPVPSSFNDISQDWRLRHFVGWVWYEREVILPERWTQDLRTRVVLRIGSAHSYAIVWVNGVDTLEHEGGYLPFEADISNLVQVGPLPSRLRITIAINNTLTPTTLPPGTIQYLTDTSKYPKGYFVQNTYFDFFNYAGLQRSVLLYTTPTTYIDDITVTTSVEQDSGLVNYQISVKGSNLFKLEVRLLDAENKVVANGTGTQGQLKVPGVSLWWPYLMHERPAYLYSLEVQLTAQTSLGPVSDFYTLPVGIRTVAVTKSQFLINGKPFYFHGVNKHEDADIRGKGFDWPLLVKDFNLLRWLGANAFRTSHYPYAEEVMQMCDRYGIVVIDECPGVGLALPQFFNNVSLHHHMQVMEEVVRRDKNHPAVVMWSVANEPASHLESAGYYLKMVIAHTKSLDPSRPVTFVSNSNYAADKGAPYVDVICLNSYYSWYHDYGHLELIQLQLATQFENWYKKYQKPIIQSEYGAETIAGFHQDPPLMFTEEYQKSLLEQYHLGLDQKRRKYVVGELIWNFADFMTEQSPTRVLGNKKGIFTRQRQPKSAAFLLRERYWKIANETRYPHSVAKSQCLENSLFT [GUSB]”, for which the thermal stability score in the data set on HeLa Kyoto [1] (setting [5]) was -0.942; in the data set on HeLa Kyoto [1] (cell cycle stage: mitosis), -0.838. Also, in the data set with HeLa Kyoto [2], the “solubility in G1/S (log2)” value is 0.259. Further, the melting temperature with HeLa Kyoto [3] (cell cycle stage: G1/S) turned out to be 56.4 °C; in the data set with HeLa Kyoto [3] (cell cycle stage: mitosis), 58 °C. For the same sequence, the “solubility change mitosis (log2)” value in the data set with HeLa Kyoto [4] is -0.164.

On to “MEMEKEFEQIDKSGSWAAIYQDIRHEASDFPCRVAKLPKNKNRNRYRDVSPFDHSRIKLHQEDNDYINASLIKMEEAQRSYILTQGPLPNTCGHFWEMVWEQKSRGVVMLNRVMEKGSLKCAQYWPQKEEKEMIFEDTNLKLTLISEDIKSYYTVRQLELENLTTQETREILHFHYTTWPDFGVPESPASFLNFLFKVRESGSLSPEHGPVVVHCSAGIGRSGTFCLADTCLLLMDKRKDPSSVDIKKVLLEMRKFRMGLIQTADQLRFSYLAVIEGAKFIMGDSSVQDQWKELSHEDLEPPPEHIPPPPRPPKRILEPHNGKCREFFPNHQWVKEETQEDKDCPIKEEKGSPLNAAPYGIESMSQDTEVRSRVVGGSLRGAQAASPAKGEPSLPEKDEDHALSYWKPFLVNMCVATVLTAGAYLCYRFLFNSNT [PTPN1]”, for which the thermal stability score worked out at 1.7 in the data set on HeLa Kyoto [1] (setting [5]) and 4.54 with HeLa Kyoto [1] (cell cycle stage: mitosis). For the same sequence, the “solubility in G1/S (log2)” value in the data set with HeLa Kyoto [2] was 0.0951. Besides, the values for the melting temperature with HeLa Kyoto [3] (cell cycle stage: G1/S) and in the data set on HeLa Kyoto [3] (cell cycle stage: mitosis) were 49.4 °C and 50.1 °C, respectively. Also, the “solubility change mitosis (log2)” value with HeLa Kyoto [4] is -0.122.

These data come from the supplement of paper PMC5998384.
